Reference: article PMC12550933, “Novel Humanized Anti-HER3 Antibodies: Structural Characterization and Therapeutic Activity” (Antibodies, 2025)

Columns and labels:
Conditions in all cases: both partners purified
[1] = target: T1, HER3 peptide #54 (15-mer of the overlapping peptide library) (Homo sapiens, UniProt P21860); experiment: peptide or protein array; ELISA on plates coated with 1 µg/mL of 15-mer HER3 peptides with 11 residues overlap; antibody at 1 µg/mL overnight at 4 °C
T1 construct: 15-mer of human HER3 from a library of 15-mers with 11 residues overlap; Limits worked out from the printed core and the 11-residue overlap; source: synthetic peptide (JPT Peptide Technologies)
T1 chain: QCNGHCFGPNPNQCC

[2] = target: T2, HER3 peptide #55 (15-mer of the overlapping peptide library) (Homo sapiens, UniProt P21860); experiment: as above
T2 construct: 15-mer of human HER3 from a library of 15-mers with 11 residues overlap; Limits worked out from the printed core and the 11-residue overlap; source: synthetic peptide (JPT Peptide Technologies)
T2 chain: HCFGPNPNQCCHDEC

[3] = target: T3, Recombinant human ErbB4 chimeric protein (Homo sapiens (Human)., UniProt Q15303); experiment: ELISA; plates coated with 1 µg/mL recombinant EGFR, ErbB2, HER3 or ErbB4 chimeric protein; purified antibodies at 10 µg/mL (Figure 3A) or in serial dilutions on human HER3 (Figure 3B)
T3 construct: human ErbB4 part of the bought chimeric protein; also called HER4; source: bought: R&D Systems

[4] = target: T4, Recombinant human ErbB2 chimeric protein (Homo sapiens (Human)., UniProt P04626); experiment: as above
T4 construct: human ErbB2 part of the bought chimeric protein; also called HER2; source: bought: R&D Systems

[5] = target: T5, Recombinant human EGFR-Fc chimeric protein (Homo sapiens (Human)., UniProt P00533); experiment: as above
T5 construct: human EGFR part of the bought Fc chimera; also called ErbB1; HER1; source: bought: R&D Systems

Rat HER3/HER3 (HisTag) = target: T6, Rat HER3/HER3 (HisTag) (rat, UniProt Q62799); experiment: ELISA; plates coated with 1 µg/mL recombinant human, mouse, rat or rhesus HER3 (His tag); purified antibodies, dose-response
T6 construct: rat HER3 (ErbB3), bought recombinant protein; probably the extracellular domain (surmise); also called recombinant rat HER3; source: bought: Sinobiological

[6] = target: T7, Rhesus HER3/HER3 (HisTag) (Macaca mulatta, UniProt H9ERZ8); experiment: as above
T7 construct: rhesus HER3 (ErbB3), bought recombinant protein; probably the extracellular domain (surmise); also called recombinant rhesus HER3; source: bought: Sinobiological

Mouse HER3/HER3 (HisTag) = target: T8, Mouse HER3/HER3 (HisTag) (mouse, UniProt Q61526); experiment: as above
T8 construct: mouse HER3 (ErbB3), bought recombinant protein; probably the extracellular domain (surmise); also called recombinant mouse HER3; source: bought: Sinobiological

[7] = target: T9, human HER3-Fc chimeric protein (Homo sapiens, UniProt P21860); experiment: SPR; Biacore X100; HER3 Fc chimera coupled to a CM5 chip; antibodies as analytes, single-cycle kinetics, 25 °C; duplicate; KD = koff/kon
T9 construct: human HER3 (ErbB3) part of the bought Fc chimera; also called HER3 Fc chimera protein; Recombinant human HER3/HER3-Fc chimeric protein; source: bought: R&D Systems
T9 sequence (P21860 20-643, change not shown): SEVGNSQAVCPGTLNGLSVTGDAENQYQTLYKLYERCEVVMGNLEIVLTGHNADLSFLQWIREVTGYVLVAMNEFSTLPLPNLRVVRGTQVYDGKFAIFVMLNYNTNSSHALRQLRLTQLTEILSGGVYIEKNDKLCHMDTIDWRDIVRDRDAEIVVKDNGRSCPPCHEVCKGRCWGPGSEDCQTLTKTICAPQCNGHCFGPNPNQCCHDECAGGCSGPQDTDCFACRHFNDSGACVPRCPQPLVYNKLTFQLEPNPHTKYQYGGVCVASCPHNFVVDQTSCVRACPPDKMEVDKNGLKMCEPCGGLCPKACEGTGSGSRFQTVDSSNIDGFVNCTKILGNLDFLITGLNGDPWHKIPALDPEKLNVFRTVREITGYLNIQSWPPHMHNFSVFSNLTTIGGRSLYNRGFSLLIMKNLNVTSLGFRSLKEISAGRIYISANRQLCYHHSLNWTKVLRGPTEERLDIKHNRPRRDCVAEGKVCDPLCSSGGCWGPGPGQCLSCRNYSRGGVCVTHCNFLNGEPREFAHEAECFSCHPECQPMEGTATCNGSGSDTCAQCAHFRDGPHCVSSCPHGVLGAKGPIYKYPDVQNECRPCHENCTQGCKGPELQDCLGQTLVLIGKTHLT

T3 sequence (Q15303 26-651, change not shown): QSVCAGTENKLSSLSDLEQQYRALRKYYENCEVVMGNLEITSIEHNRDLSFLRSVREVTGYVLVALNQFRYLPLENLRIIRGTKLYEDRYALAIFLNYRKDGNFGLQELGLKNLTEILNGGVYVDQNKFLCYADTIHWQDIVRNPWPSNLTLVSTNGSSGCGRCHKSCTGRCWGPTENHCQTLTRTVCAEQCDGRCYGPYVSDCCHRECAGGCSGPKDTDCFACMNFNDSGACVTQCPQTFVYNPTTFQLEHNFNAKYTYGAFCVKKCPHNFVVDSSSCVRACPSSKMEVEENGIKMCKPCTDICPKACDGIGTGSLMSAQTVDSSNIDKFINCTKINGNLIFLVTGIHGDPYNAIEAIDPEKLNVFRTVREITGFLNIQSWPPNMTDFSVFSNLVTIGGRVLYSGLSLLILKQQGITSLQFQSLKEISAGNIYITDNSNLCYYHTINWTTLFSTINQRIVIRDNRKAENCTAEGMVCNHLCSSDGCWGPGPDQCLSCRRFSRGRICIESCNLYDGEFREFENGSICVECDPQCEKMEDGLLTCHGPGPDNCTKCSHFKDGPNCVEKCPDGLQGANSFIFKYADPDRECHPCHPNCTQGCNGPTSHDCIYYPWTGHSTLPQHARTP
T6 sequence (Q62799 20-643): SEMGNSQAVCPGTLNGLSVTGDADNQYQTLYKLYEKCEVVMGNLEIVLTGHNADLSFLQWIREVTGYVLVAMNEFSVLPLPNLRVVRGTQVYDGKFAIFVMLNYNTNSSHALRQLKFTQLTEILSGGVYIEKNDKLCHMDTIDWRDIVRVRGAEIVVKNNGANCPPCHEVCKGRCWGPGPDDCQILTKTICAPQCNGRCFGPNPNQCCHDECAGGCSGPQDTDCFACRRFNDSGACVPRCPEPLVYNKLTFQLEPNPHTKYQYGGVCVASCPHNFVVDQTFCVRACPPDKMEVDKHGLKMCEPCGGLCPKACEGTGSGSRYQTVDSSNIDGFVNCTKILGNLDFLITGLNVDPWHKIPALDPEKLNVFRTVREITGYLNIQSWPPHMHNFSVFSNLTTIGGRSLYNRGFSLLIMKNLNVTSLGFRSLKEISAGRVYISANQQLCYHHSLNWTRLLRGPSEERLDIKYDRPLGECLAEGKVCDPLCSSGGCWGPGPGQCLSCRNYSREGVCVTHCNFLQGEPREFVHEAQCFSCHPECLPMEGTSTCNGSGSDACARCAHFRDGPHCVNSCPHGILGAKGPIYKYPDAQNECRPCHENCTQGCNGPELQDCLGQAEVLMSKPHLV
T8 sequence (Q61526 20-641): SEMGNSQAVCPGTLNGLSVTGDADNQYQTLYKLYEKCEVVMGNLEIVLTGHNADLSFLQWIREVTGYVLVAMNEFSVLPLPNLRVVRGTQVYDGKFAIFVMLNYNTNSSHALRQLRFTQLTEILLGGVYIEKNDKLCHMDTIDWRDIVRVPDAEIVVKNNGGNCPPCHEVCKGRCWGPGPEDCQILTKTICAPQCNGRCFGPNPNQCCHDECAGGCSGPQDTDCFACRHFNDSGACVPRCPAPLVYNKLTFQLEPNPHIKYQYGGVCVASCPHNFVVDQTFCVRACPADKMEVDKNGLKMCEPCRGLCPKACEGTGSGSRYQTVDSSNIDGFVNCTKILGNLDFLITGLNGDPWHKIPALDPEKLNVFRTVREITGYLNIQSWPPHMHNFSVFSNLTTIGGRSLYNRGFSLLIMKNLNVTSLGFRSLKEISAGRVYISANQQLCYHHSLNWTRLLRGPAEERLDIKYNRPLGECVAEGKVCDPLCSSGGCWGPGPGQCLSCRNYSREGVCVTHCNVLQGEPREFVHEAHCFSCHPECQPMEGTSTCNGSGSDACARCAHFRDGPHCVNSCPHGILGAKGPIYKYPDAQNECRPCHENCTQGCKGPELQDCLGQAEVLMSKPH

binding result [1]: binds
binding result [2]: binds
binding result [3]: no binding (tested: 10 µg/mL)
binding result [4]: no binding (tested: 10 µg/mL)
binding result [5]: no binding (tested: 10 µg/mL)
binding result (Rat HER3/HER3 (HisTag)): binds
binding result [6]: binds
binding result (Mouse HER3/HER3 (HisTag)): binds
Kd [7]: 1.81 nM
koff [7]: 0.000113 s⁻¹
kon [7]: 62400 M⁻¹ s⁻¹
B1: TK-hu A3-H1L1 humanized anti-HER3 monoclonal antibody (human IgG1, kappa) (antibody, V domains shown)
VH: QVTLRESGPALVKPTQTLTLTCTFSGFSLSTYGMGVGWIRQPPGKALEWLANIWWNDDKYYSSSLKTRLTISKDTSKNQVVLTMTNMDPVDTATYYCVQIANPYWYFDVWGQGTTVTVSS
VL: DIVMTQTPLSLSVTPGQPASISCKSSQSLLHSYGNTYLEWYLQKPGQSPQLLIYRVSNRFSGVPDRFSGSGSGTDFTLKISRVEAEDVGVYYCFQGSHVPFTFGQGTKLEIK
notes: humanized heavy chain variable region, variant H1 (germline CDR grafting of murine TK-A3); they are in PDB 9I1Q chain I (also J, K, L), which also holds CH1 of the Fab; human IgG1 constant region present in the expression vector; humanized light chain variant L1 in frame with the human kappa constant region; the whole light chain is in PDB 9I1Q chain F (also E, G, H); IgG1 kappa; also called …
